# Measurements from publication PMC7488863, “Overexpression of transcription factor SlWRKY28 improved the tolerance of Populus davidiana × P. bolleana to alkaline salt stress”.
# B1: W-box probe (Biotin-Pr) (dsDNA)
# DNA 1: GGAACTTGACCTTGACCTTAGGGCTGCAGGAATTCG
# DNA 2: CGAATTCCTGCAGCCCTAAGGTCAAGGTCAAGTTCC
# B2: W-box cold probe (Cold-Pr) (dsDNA)
# DNA 1: GGAACTTGACCTTGACCTTAGGGCTGCAGGAATTCG
# DNA 2: CGAATTCCTGCAGCCCTAAGGTCAAGGTCAAGTTCC
# Tests used:
# [1] = molecular target: T1, GST-SlWRKY28 (Salix linearistipularis, UniProt A0A4D6JIT6 1-474); experiment: EMSA; EMSA/gel-shift binding buffer (Beyotime kit, 5x stock, 2 uL per 10 uL reaction), 25 C, 20 min; salt and pH not stated; details: protein: recombinant; tags: N-terminal GST (pGEX-6p-3); label: biotin (both probe strands); blunt
# T1 sequence (A0A4D6JIT6 entry or part of it): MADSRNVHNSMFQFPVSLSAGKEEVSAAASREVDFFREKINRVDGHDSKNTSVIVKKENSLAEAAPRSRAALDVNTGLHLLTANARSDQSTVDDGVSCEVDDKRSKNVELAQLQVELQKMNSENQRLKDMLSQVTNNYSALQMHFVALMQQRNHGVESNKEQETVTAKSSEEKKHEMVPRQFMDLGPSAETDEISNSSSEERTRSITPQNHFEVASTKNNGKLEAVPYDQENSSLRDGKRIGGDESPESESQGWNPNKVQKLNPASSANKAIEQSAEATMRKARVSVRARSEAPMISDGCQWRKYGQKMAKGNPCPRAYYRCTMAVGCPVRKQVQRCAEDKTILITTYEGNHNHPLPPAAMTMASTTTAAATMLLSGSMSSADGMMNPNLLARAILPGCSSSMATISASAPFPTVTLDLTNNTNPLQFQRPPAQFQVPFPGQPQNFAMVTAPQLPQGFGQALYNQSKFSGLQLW
# [2] = molecular target: T1, GST-SlWRKY28; experiment: competition; 10x and 50x unlabeled probe against Biotin-Pr; complex signal weak with cold probe; EMSA/gel-shift binding buffer (Beyotime kit, 5x stock, 2 uL per 10 uL reaction), 25 C, 20 min; salt and pH not stated; details: protein: recombinant; tags: N-terminal GST (pGEX-6p-3); blunt
Binder,binding result [1],binding result [2]
B1,binds,–
B2,–,binds
